Source: patent publication US20240067696A1 (ZEALAND PHARMA A S, published 2024)
Non-standard residues stand in square brackets, D forms with d. Dab = NCC[C@H](N)C(=O)O; Aib = CC(C)(N)C(=O)O

B1: Compound 25 (peptide)
peptide: H-HSQGTFTSDYSKYLD[Aib]RRAESFVKWLEST-OH
SMILES: CC(C)C[C@H](NC(=O)[C@H](Cc1c[nH]c2ccccc12)NC(=O)[C@H](CCCCN)NC(=O)[C@@H](NC(=O)[C@H](Cc1ccccc1)NC(=O)[C@H](CO)NC(=O)[C@H](CCC(=O)O)NC(=O)[C@H](C)NC(=O)[C@H](CCCNC(=N)N)NC(=O)[C@H](CCCNC(=N)N)NC(=O)C(C)(C)NC(=O)[C@H](CC(=O)O)NC(=O)[C@H](CC(C)C)NC(=O)[C@H](Cc1ccc(O)cc1)NC(=O)[C@H](CCCCN)NC(=O)[C@H](CO)NC(=O)[C@H](Cc1ccc(O)cc1)NC(=O)[C@H](CC(=O)O)NC(=O)[C@H](CO)NC(=O)[C@@H](NC(=O)[C@H](Cc1ccccc1)NC(=O)[C@@H](NC(=O)CNC(=O)[C@H](CCC(N)=O)NC(=O)[C@H](CO)NC(=O)[C@@H](N)Cc1c[nH]cn1)[C@@H](C)O)[C@@H](C)O)C(C)C)C(=O)N[C@@H](CCC(=O)O)C(=O)N[C@@H](CO)C(=O)N[C@H](C(=O)O)[C@@H](C)O
B2: Compound 23 (peptide)
peptide: H-HSQGTFTSDVSKYLD[Aib]ARAESFVKWLEST-OH
SMILES: CC(C)C[C@H](NC(=O)[C@H](Cc1c[nH]c2ccccc12)NC(=O)[C@H](CCCCN)NC(=O)[C@@H](NC(=O)[C@H](Cc1ccccc1)NC(=O)[C@H](CO)NC(=O)[C@H](CCC(=O)O)NC(=O)[C@H](C)NC(=O)[C@H](CCCNC(=N)N)NC(=O)[C@H](C)NC(=O)C(C)(C)NC(=O)[C@H](CC(=O)O)NC(=O)[C@H](CC(C)C)NC(=O)[C@H](Cc1ccc(O)cc1)NC(=O)[C@H](CCCCN)NC(=O)[C@H](CO)NC(=O)[C@@H](NC(=O)[C@H](CC(=O)O)NC(=O)[C@H](CO)NC(=O)[C@@H](NC(=O)[C@H](Cc1ccccc1)NC(=O)[C@@H](NC(=O)CNC(=O)[C@H](CCC(N)=O)NC(=O)[C@H](CO)NC(=O)[C@@H](N)Cc1c[nH]cn1)[C@@H](C)O)[C@@H](C)O)C(C)C)C(C)C)C(=O)N[C@@H](CCC(=O)O)C(=O)N[C@@H](CO)C(=O)N[C@H](C(=O)O)[C@@H](C)O
B3: Compound 22 (peptide)
peptide: H-HSQ[dA]TFTSDYSKYLD[Aib]ARAESFVKWLEST-OH
SMILES: CC(C)C[C@H](NC(=O)[C@H](Cc1c[nH]c2ccccc12)NC(=O)[C@H](CCCCN)NC(=O)[C@@H](NC(=O)[C@H](Cc1ccccc1)NC(=O)[C@H](CO)NC(=O)[C@H](CCC(=O)O)NC(=O)[C@H](C)NC(=O)[C@H](CCCNC(=N)N)NC(=O)[C@H](C)NC(=O)C(C)(C)NC(=O)[C@H](CC(=O)O)NC(=O)[C@H](CC(C)C)NC(=O)[C@H](Cc1ccc(O)cc1)NC(=O)[C@H](CCCCN)NC(=O)[C@H](CO)NC(=O)[C@H](Cc1ccc(O)cc1)NC(=O)[C@H](CC(=O)O)NC(=O)[C@H](CO)NC(=O)[C@@H](NC(=O)[C@H](Cc1ccccc1)NC(=O)[C@@H](NC(=O)[C@@H](C)NC(=O)[C@H](CCC(N)=O)NC(=O)[C@H](CO)NC(=O)[C@@H](N)Cc1c[nH]cn1)[C@@H](C)O)[C@@H](C)O)C(C)C)C(=O)N[C@@H](CCC(=O)O)C(=O)N[C@@H](CO)C(=O)N[C@H](C(=O)O)[C@@H](C)O
B4: Compound 29 (peptide)
peptide: H-HSQGTFTSDYSKYLD[Aib]ARAKSFVEWLEKT-OH
SMILES: CC(C)C[C@H](NC(=O)[C@H](Cc1c[nH]c2ccccc12)NC(=O)[C@H](CCC(=O)O)NC(=O)[C@@H](NC(=O)[C@H](Cc1ccccc1)NC(=O)[C@H](CO)NC(=O)[C@H](CCCCN)NC(=O)[C@H](C)NC(=O)[C@H](CCCNC(=N)N)NC(=O)[C@H](C)NC(=O)C(C)(C)NC(=O)[C@H](CC(=O)O)NC(=O)[C@H](CC(C)C)NC(=O)[C@H](Cc1ccc(O)cc1)NC(=O)[C@H](CCCCN)NC(=O)[C@H](CO)NC(=O)[C@H](Cc1ccc(O)cc1)NC(=O)[C@H](CC(=O)O)NC(=O)[C@H](CO)NC(=O)[C@@H](NC(=O)[C@H](Cc1ccccc1)NC(=O)[C@@H](NC(=O)CNC(=O)[C@H](CCC(N)=O)NC(=O)[C@H](CO)NC(=O)[C@@H](N)Cc1c[nH]cn1)[C@@H](C)O)[C@@H](C)O)C(C)C)C(=O)N[C@@H](CCC(=O)O)C(=O)N[C@@H](CCCCN)C(=O)N[C@H](C(=O)O)[C@@H](C)O
B5: Compound 31 (peptide)
peptide: H-HSQGTFTSDYSKYLD[Aib]ARAESFVKWLEST-NH2
SMILES: CC(C)C[C@H](NC(=O)[C@H](Cc1c[nH]c2ccccc12)NC(=O)[C@H](CCCCN)NC(=O)[C@@H](NC(=O)[C@H](Cc1ccccc1)NC(=O)[C@H](CO)NC(=O)[C@H](CCC(=O)O)NC(=O)[C@H](C)NC(=O)[C@H](CCCNC(=N)N)NC(=O)[C@H](C)NC(=O)C(C)(C)NC(=O)[C@H](CC(=O)O)NC(=O)[C@H](CC(C)C)NC(=O)[C@H](Cc1ccc(O)cc1)NC(=O)[C@H](CCCCN)NC(=O)[C@H](CO)NC(=O)[C@H](Cc1ccc(O)cc1)NC(=O)[C@H](CC(=O)O)NC(=O)[C@H](CO)NC(=O)[C@@H](NC(=O)[C@H](Cc1ccccc1)NC(=O)[C@@H](NC(=O)CNC(=O)[C@H](CCC(N)=O)NC(=O)[C@H](CO)NC(=O)[C@@H](N)Cc1c[nH]cn1)[C@@H](C)O)[C@@H](C)O)C(C)C)C(=O)N[C@@H](CCC(=O)O)C(=O)N[C@@H](CO)C(=O)N[C@H](C(N)=O)[C@@H](C)O
B6: Compound 24 (peptide)
peptide: H-HS[Dab](Ac)GTFTSDYSKYLD[Aib]ARAESFVKWLEST-NH2
SMILES: CC(=O)NCC[C@H](NC(=O)[C@H](CO)NC(=O)[C@@H](N)Cc1c[nH]cn1)C(=O)NCC(=O)N[C@H](C(=O)N[C@@H](Cc1ccccc1)C(=O)N[C@H](C(=O)N[C@@H](CO)C(=O)N[C@@H](CC(=O)O)C(=O)N[C@@H](Cc1ccc(O)cc1)C(=O)N[C@@H](CO)C(=O)N[C@@H](CCCCN)C(=O)N[C@@H](Cc1ccc(O)cc1)C(=O)N[C@@H](CC(C)C)C(=O)N[C@@H](CC(=O)O)C(=O)NC(C)(C)C(=O)N[C@@H](C)C(=O)N[C@@H](CCCNC(=N)N)C(=O)N[C@@H](C)C(=O)N[C@@H](CCC(=O)O)C(=O)N[C@@H](CO)C(=O)N[C@@H](Cc1ccccc1)C(=O)N[C@H](C(=O)N[C@@H](CCCCN)C(=O)N[C@@H](Cc1c[nH]c2ccccc12)C(=O)N[C@@H](CC(C)C)C(=O)N[C@@H](CCC(=O)O)C(=O)N[C@@H](CO)C(=O)N[C@H](C(N)=O)[C@@H](C)O)C(C)C)[C@@H](C)O)[C@@H](C)O
B7: Compound 30 (peptide)
peptide: H-HSQGTFTSDYSKYLD[Aib]ARAESFVKWLESA-OH
SMILES: CC(C)C[C@H](NC(=O)[C@H](Cc1c[nH]c2ccccc12)NC(=O)[C@H](CCCCN)NC(=O)[C@@H](NC(=O)[C@H](Cc1ccccc1)NC(=O)[C@H](CO)NC(=O)[C@H](CCC(=O)O)NC(=O)[C@H](C)NC(=O)[C@H](CCCNC(=N)N)NC(=O)[C@H](C)NC(=O)C(C)(C)NC(=O)[C@H](CC(=O)O)NC(=O)[C@H](CC(C)C)NC(=O)[C@H](Cc1ccc(O)cc1)NC(=O)[C@H](CCCCN)NC(=O)[C@H](CO)NC(=O)[C@H](Cc1ccc(O)cc1)NC(=O)[C@H](CC(=O)O)NC(=O)[C@H](CO)NC(=O)[C@@H](NC(=O)[C@H](Cc1ccccc1)NC(=O)[C@@H](NC(=O)CNC(=O)[C@H](CCC(N)=O)NC(=O)[C@H](CO)NC(=O)[C@@H](N)Cc1c[nH]cn1)[C@@H](C)O)[C@@H](C)O)C(C)C)C(=O)N[C@@H](CCC(=O)O)C(=O)N[C@@H](CO)C(=O)N[C@@H](C)C(=O)O
B8: Compound 20 (peptide)
peptide: H-HAQGTFTSDYSKYLD[Aib]ARAESFVKWLEST-OH
SMILES: CC(C)C[C@H](NC(=O)[C@H](Cc1c[nH]c2ccccc12)NC(=O)[C@H](CCCCN)NC(=O)[C@@H](NC(=O)[C@H](Cc1ccccc1)NC(=O)[C@H](CO)NC(=O)[C@H](CCC(=O)O)NC(=O)[C@H](C)NC(=O)[C@H](CCCNC(=N)N)NC(=O)[C@H](C)NC(=O)C(C)(C)NC(=O)[C@H](CC(=O)O)NC(=O)[C@H](CC(C)C)NC(=O)[C@H](Cc1ccc(O)cc1)NC(=O)[C@H](CCCCN)NC(=O)[C@H](CO)NC(=O)[C@H](Cc1ccc(O)cc1)NC(=O)[C@H](CC(=O)O)NC(=O)[C@H](CO)NC(=O)[C@@H](NC(=O)[C@H](Cc1ccccc1)NC(=O)[C@@H](NC(=O)CNC(=O)[C@H](CCC(N)=O)NC(=O)[C@H](C)NC(=O)[C@@H](N)Cc1c[nH]cn1)[C@@H](C)O)[C@@H](C)O)C(C)C)C(=O)N[C@@H](CCC(=O)O)C(=O)N[C@@H](CO)C(=O)N[C@H](C(=O)O)[C@@H](C)O

target: human glucagon receptor (human, UniProt P47871 26-477); experiment: cell-based or functional assay
Sequence (P47871 26-477): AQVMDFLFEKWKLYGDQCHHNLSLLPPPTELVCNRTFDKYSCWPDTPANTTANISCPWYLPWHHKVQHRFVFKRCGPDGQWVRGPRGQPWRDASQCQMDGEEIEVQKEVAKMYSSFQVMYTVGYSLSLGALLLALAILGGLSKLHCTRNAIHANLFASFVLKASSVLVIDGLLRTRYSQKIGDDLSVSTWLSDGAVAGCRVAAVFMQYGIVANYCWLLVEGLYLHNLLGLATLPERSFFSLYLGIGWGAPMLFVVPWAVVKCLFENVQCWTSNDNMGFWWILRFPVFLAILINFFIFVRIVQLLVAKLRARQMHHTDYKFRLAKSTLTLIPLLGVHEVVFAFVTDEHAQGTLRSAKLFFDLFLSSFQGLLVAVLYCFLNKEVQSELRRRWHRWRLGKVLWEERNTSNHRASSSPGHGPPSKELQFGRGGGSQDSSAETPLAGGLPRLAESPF

GCG-R EC50 in vitro [nM] (cAMP, AlphaScreen, HEK293 cells expressing human Glucagon-R) | Binder
0.0066 | B1
0.18 | H-HSQGTFTSDYSKYLDSARAEDFVKWLEET-OH [Compound 2]
0.16 | B2
0.024 | B3
0.023 | B4
0.0072 | B5
0.035 | H-HSQGTFTSDYSKYLDEARAKSFVEWLEST-OH [Compound 28]
0.054 | H-HSQGTFTSDYSKYLDVARAESFVKWLEST-OH [Compound 19]
0.0078 | B6
0.016 | B7
0.24 | B8
0.063 | H-HSQGTFTSDYSKYLDEARAKSFVEWLEKT-OH [Compound 27]
